Consider 14 molecules from US20230348573A1 (KEIO UNIVERSITY, published 2023).

B1: Ab816 (antibody, V domains shown)
VH: QVQLVQSGAEVKKPGESLMISCKASGYNFRNYWIAWVRQMPGKGLEWMGIIHPGDSDIRYRPSLQGHVTISADKSITTAYLQWGSLKASDTAMYYCTRITTDADSSGLFHYWGQGTLVTVSS
VL: EIVLTQSPSTLSASVGDRVTITCRASQNIYTWLAWYQRKPGKAPKVLIYKASSLESGVPSRFSGSGSGTEFTLTISSLQPDDFATYYCQQYKSAWSFGQGTKVEIK
B2: Ab712 (antibody, V domains shown)
VH: QVQLVQSGSELKKPGASVKISCKASGYTFINHAINWVRQAPGQGLEWMGWINTNTGNPTYAPGFTGRFVFSLDTSVSTAYLQISSLKAEDTAVYYCARIPIRDYDYDGSGYYYFLDYWGQGTLVTVSS
VL: SYELTQDPAVSVALGQTVRITCQGDSLRSSSASWYQQKPGQAPVLVIYGKTNRPSGIPDRFSGSSSGNTASLTITGAQAEDEADYYCNSRDNSGNHPVVFGGGTKLTVL
B3: Ab847 (antibody, V domains shown)
VH: EVQLVQSGAEVKKPGASVKVSCKASGYTFTSYDIIWVRQATGQGLEWMGWMDPSRGTTGYAQTFQGRVTMTRDTSISTAYLELNSLTSEDTAVYYCVAHIVVLDRWFDPWGQGTLVTVSS
VL: DIVMTQSPSSLSASVGDRVTITCQASQDIGNFLNWCQQKPGQAPKVLIYGASNLETGVPSRFSGSGSGTDFTFTISSLQPEDIATYYCQHYDNFPPRFTFGQGTKLDIK
B4: Ab803 (antibody, V domains shown)
VH: EVQLVESGGGLVQPGRSLRVSCAASGFTFDDYAMHWVRQTPRKGLEWVAGISRNSAAIAYADSVKGRFTISRDNAKNSVFLQMNGLRADDTALYYCVKSPRYGWGSPDYSFDFWGRGTLVTVSS
VL: DIQLTQSPSSLSASVGDRVTITCRASQNIGTYLNWYQQEPGKAPKLLIYAASSLQSGVPSRFSGSGSGTDFTLTISSLQPEDFATYCCQQSFTTPLTFGQGTKVEIK
B5: Ab188 (antibody, V domains shown)
VH: EVQLVESGGGLVQPGGSLRLSCAASGFTFINYKMNWVRQAPGKGLEWVSYISSGSDAIYYADSVKGRFTISRDNAKNSLYLQMNSLRDEDTALYYCARGGGYNYGECMDVWGQGTTVTVSS
VL: not shown
B6: Ab326 (antibody, V domains shown)
VH: EVQLVESGGGVVQPGRSLRLSCAASGFTFSHYPMHWVRQAPGRGLEWVAVISYDGSNQHYVDSVKGRFTISRDNSKNTLYLQMNSLRAEDTAVYFCASLITMIRGVPDYWGQGTLVTVSS
VL: DIQMTQSPSSLSASVGDRVTITCRASQSISNYLNWYQQKPGKAPNLLIFAASSLQSGVPSRFSGSGSGTEFTLTISSLQPEDFAAYYCLQTYSTPRTFGQGTRLEIK
B7: Ab863 (antibody, V domains shown)
VH: EVQLVQSGAEVKKPGASVKVSCQASGYTFITYYMHWVRQAPGQGLEWMGIINPDGGSISYAQKFQGRVTMTRDTSTSTVYMELSSLRSEDTAVYYCARGLSPTFSSSWFDNWGLGTLVTVSS
VL: DVVMTQSPATLSVSPGERATLSCRASQSVSSNLAWYQQKPGQAPRLLIYGASTRDTGIPARFSGSGSGTEFTLTISSLQSEDFAVYFCQQYKNWLLTFGGGTKVEIK
B8: Ab354 (antibody, V domains shown)
VH: QVQLVQSGAEVKKPGASVTVSCKASGFLFTGYYMHWVRQAPGQGLEWMGWINPNSGASNYTRKFQGRVTMTRDTSISATYMKLSRLTSDDTAVYYCARDLAFSMVRGALDYWGQGTLVTVSS
VL: QLVLTQPPSASGSPGQSVTISCTGTSSDVGGYNYVSWYQHHPGKAPKLMIYEVSKRPSGVPDRFSGSKSGNTASLTVSGLQAEDEADYYCNSYAGNNNWVFGTGTKVTVL
B9: Ab159 (antibody, V domains shown)
VH: QVQLVESGGGLVKPGGSLRLSCAASGFTFNNAWMSWVRQAPGKGLEWVGRIKSKTDGGTTDYAAPVKGRFTFSRDDSKNTLYLQMSSLKTEDTALYYCTTADYDILTGTPASPYWGQGTLVTVSS
VL: DIQMTQSPSSLSASVGDRVTITCRASQSITNYLNWYQQKPGKAPKFLIYAASSLQGGVPSRFRGSGSGTDFTLTISSLQPEDFATYYCQQTYSTLWTFGQGTKVEIK
B10: Ab709TK (antibody, V domains shown)
VH: QVQLVESGGGVVQPGKSLRLSCAASGFTFSSYAMHWVRLAPGKGLEWVAVISPDGKNKYYVDSVKGRSTISRDNSKNTLYLLMNSLRAEDTAVYYCATTQSLWFGQFYYIYGMDVWGQGTTVTVSS
VL: QSVLTQPHSVSESPGKTITISCTGSSGSIASNYVQWYQQRPGSAPTTVIYEDTERPSGVPDRFSGSIDSSSNSASLTISGLKTEDEADYYCQSYDSNNVVFGGGTKLTVL
B11: Ab765 (antibody, V domains shown)
VH: QVQLVESGGGVVQPGRSLRLSCAASGFTFSDYAIHWVRQAPGRGLEPVALISYDGNNKYYADSVKGRFTISRDNSKNVLYLQMNSLRADDTAVYYCARDAEGGWVAALDYWGQGTLVTVSS
VL: QSALTQPRSVSGSPGQSVTISCTGTSSDVGGYNYVSWYQHHPGKAPKVMIYEVSKRPSGVPDRFSGSKSGTTASLTISGLQAEDEADYYCCSYAGTYPYVFGTGTKVTVL
B12: Ab864 (antibody, V domains shown)
VH: EVQLVESGGGLVQPGRSLRLSCAASGFTFDDYAMHWVRQVPGKGLEWVSGISWNKGNIDYADSVKGRFTISRDNAKNSLYLQMNSLRPEDTGLYYCAKDCHYDSPGYFPNCLHSWGQGTLVTVSS
VL: EIVMTQSPSSLSASVGDRVTITCRASQGINTYLAWYQQKPGKAPKLLIYTASTLQSGVPSRFSGSGSGTDFTLTISSLQPEDFATYYCQQVHSYPLTFGGGTKVEIK
B13: Ab496 (antibody, V domains shown)
VH: EVQLVQSGPEVKKPGTSVKVSCKASGFIFTNSAVQWVRQARGQRLEWIGWIVVGSGNPNYAQKFQERVTITRDRSTSTAYMELSSLTSEDTAVYYCAAFPYYYDNSGSGPWGQGTLVTVSS
VL: DIQLTQSPSSLSASVGDRVTITCQASQDIRNNLNWYQQIPGKAPKLLIYDASNLETGVPSRFSGSASGTDFTFTISSLQPEDVATYYCQQYANLPPFTFGPGTKVDIK
B14: Ab830 (antibody, V domains shown)
VH: QVQLVQSGAEVKKPGSSVKVSCKTSGGTFTNYTISWVRQAPGQGLEWMGRIIPIFDIVNYAQKFQGRVTITADKSTSTTYMELSSLRSEDTAVYYCARDGVLYDTSGYLYDAFDIWGQGTMVTVSS
VL: DIQMTQSPSSLSASVGDRVTITCRASQGINNYLAWFQQKPGKAPKSLIYAASSLQSGVPPKFSGSGSGTDFTLTISSLQPEDFATYYCLHYNSYPWTFGQGTKVEIK

The first experiment deals with spike protein of SARS-CoV-2 α strain on pseudovirus (SARS-CoV-2 (α strain)). In words: cell-based or functional assay.
Take B1: the “IC50 of pseudovirus infection (luciferase)” value (“IC50 of pseudovirus infection” below) was found to be 0.0175 µg/mL.

Take B2: the “IC50 of pseudovirus infection” value is 0.103 µg/mL.

As for B3, the “IC50 of pseudovirus infection” value was found to be 0.0821 µg/mL.

Take B4: the “IC50 of pseudovirus infection” value is 0.402 µg/mL.

As for B5, the “IC50 of pseudovirus infection” value amounted to 0.248 µg/mL.

Turning to B6, the “IC50 of pseudovirus infection” value was 0.0493 µg/mL.

On to B7, for which the “IC50 of pseudovirus infection” value worked out at 0.0301 µg/mL.

For B8, the “IC50 of pseudovirus infection” value is 0.0937 µg/mL.

With B9, the “IC50 of pseudovirus infection” value stood at 0.0119 µg/mL.

Consider B10, for which the “IC50 of pseudovirus infection” value was 0.236 µg/mL.

For B11, the “IC50 of pseudovirus infection” value worked out at 0.0166 µg/mL.

Consider B12, for which the “IC50 of pseudovirus infection” value was 0.0098 µg/mL.

For the molecule B13, the “IC50 of pseudovirus infection” value came out at 0.0169 µg/mL.

Consider B14, for which the “IC50 of pseudovirus infection” value is 0.0374 µg/mL.

The target in the next experiment is spike protein of SARS-CoV-2 β strain on pseudovirus (SARS-CoV-2 (β strain)). The experiment in a line: cell-based or functional assay.
In the case of B1, the “IC50 of pseudovirus infection” value stood at 0.0095 µg/mL.

B2: the “IC50 of pseudovirus infection” value came out at 0.0077 µg/mL.

For B3, the “IC50 of pseudovirus infection” value came out at 0.0103 µg/mL.

Turning to B4, the “IC50 of pseudovirus infection” value stood at 0.0104 µg/mL.

As to B5, the “IC50 of pseudovirus infection” value was 0.0179 µg/mL.

On to B9, for which the “IC50 of pseudovirus infection” value came to 0.00537 µg/mL.

Take B10: the “IC50 of pseudovirus infection” value was determined as 0.0058 µg/mL.

On to B11, for which the “IC50 of pseudovirus infection” value was 0.0045 µg/mL.

For the molecule B12, the “IC50 of pseudovirus infection” value turned out to be 0.0044 µg/mL.

B14: the “IC50 of pseudovirus infection” value is 0.0569 µg/mL.

The target of a further experiment is spike protein of SARS-CoV-2 γ strain on pseudovirus (SARS-CoV-2 (γ strain)). In words: cell-based or functional assay.
Take B1: the “IC50 of pseudovirus infection” value was found to be 0.0018 µg/mL.

As for B2, the “IC50 of pseudovirus infection” value was 0.0022 µg/mL.

Turning to B3, the “IC50 of pseudovirus infection” value worked out at 0.0502 µg/mL.

As to B4, the “IC50 of pseudovirus infection” value was 0.0106 µg/mL.

Regarding B9, the “IC50 of pseudovirus infection” value worked out at 0.00369 µg/mL.

In the case of B10, the “IC50 of pseudovirus infection” value came out at 0.0033 µg/mL.

Regarding B11, the “IC50 of pseudovirus infection” value came out at 0.0144 µg/mL.

On to B14, for which the “IC50 of pseudovirus infection” value was found to be 0.0011 µg/mL.

A further experiment concerns the target spike protein of SARS-CoV-2 δ strain on pseudovirus (SARS-CoV-2 (δ strain)). In words: cell-based or functional assay.
With B1, the “IC50 of pseudovirus infection” value turned out to be 0.0239 µg/mL.

Turning to B2, the “IC50 of pseudovirus infection” value stood at 0.0799 µg/mL.

For B3, the “IC50 of pseudovirus infection” value turned out to be 0.0422 µg/mL.

As for B4, the “IC50 of pseudovirus infection” value amounted to 0.0639 µg/mL.

Consider B5, for which the “IC50 of pseudovirus infection” value came out at 0.139 µg/mL.

Take B6: the “IC50 of pseudovirus infection” value stood at 0.0184 µg/mL.

With B8, the “IC50 of pseudovirus infection” value amounted to 0.0715 µg/mL.

For B9, the “IC50 of pseudovirus infection” value was found to be 0.13 µg/mL.

Regarding B10, the “IC50 of pseudovirus infection” value is 0.0586 µg/mL.

B11: the “IC50 of pseudovirus infection” value was found to be 0.0269 µg/mL.

As for B12, the “IC50 of pseudovirus infection” value is 0.0172 µg/mL.

As for B13, the “IC50 of pseudovirus infection” value stood at 0.00984 µg/mL.

Regarding B14, the “IC50 of pseudovirus infection” value came out at 0.0554 µg/mL.

For another experiment, the target named is spike protein of SARS-CoV-2 B.1.1.482 strain on pseudovirus (SARS-CoV-2 (B.1.1.482 strain)). The experiment in a line: cell-based or functional assay.
As for B1, the “IC50 of pseudovirus infection” value is 0.0396 µg/mL.

For B2, the “IC50 of pseudovirus infection” value was determined as 0.0164 µg/mL.

As for B3, the “IC50 of pseudovirus infection” value was 0.0548 µg/mL.

With B4, the “IC50 of pseudovirus infection” value is 0.144 µg/mL.

Take B5: the “IC50 of pseudovirus infection” value was 0.171 µg/mL.

With B8, the “IC50 of pseudovirus infection” value came out at 0.277 µg/mL.

As for B9, the “IC50 of pseudovirus infection” value is 0.0233 µg/mL.

Consider B10, for which the “IC50 of pseudovirus infection” value turned out to be 0.172 µg/mL.

With B11, the “IC50 of pseudovirus infection” value came to 0.0117 µg/mL.

As to B12, the “IC50 of pseudovirus infection” value is 0.0234 µg/mL.

Consider B13, for which the “IC50 of pseudovirus infection” value amounted to 0.0506 µg/mL.

As to B14, the “IC50 of pseudovirus infection” value is 0.0042 µg/mL.
